Experimental data reported in patent US20220073608A1 (JIANGSU HUAIYU PHARMACEUTICAL, published 2022).

Target: T1, hSEMA4D ECD-His (His-tagged human SEMA4D protein extracellular domain, Met22-Arg734) (human, UniProt Q92854 22-734)
T1 construct: Expressed in CHO-S cells, purified on Ni column; also called protein immunogen; immunogen A; not shown: His tag of the pCP vector
T1 sequence: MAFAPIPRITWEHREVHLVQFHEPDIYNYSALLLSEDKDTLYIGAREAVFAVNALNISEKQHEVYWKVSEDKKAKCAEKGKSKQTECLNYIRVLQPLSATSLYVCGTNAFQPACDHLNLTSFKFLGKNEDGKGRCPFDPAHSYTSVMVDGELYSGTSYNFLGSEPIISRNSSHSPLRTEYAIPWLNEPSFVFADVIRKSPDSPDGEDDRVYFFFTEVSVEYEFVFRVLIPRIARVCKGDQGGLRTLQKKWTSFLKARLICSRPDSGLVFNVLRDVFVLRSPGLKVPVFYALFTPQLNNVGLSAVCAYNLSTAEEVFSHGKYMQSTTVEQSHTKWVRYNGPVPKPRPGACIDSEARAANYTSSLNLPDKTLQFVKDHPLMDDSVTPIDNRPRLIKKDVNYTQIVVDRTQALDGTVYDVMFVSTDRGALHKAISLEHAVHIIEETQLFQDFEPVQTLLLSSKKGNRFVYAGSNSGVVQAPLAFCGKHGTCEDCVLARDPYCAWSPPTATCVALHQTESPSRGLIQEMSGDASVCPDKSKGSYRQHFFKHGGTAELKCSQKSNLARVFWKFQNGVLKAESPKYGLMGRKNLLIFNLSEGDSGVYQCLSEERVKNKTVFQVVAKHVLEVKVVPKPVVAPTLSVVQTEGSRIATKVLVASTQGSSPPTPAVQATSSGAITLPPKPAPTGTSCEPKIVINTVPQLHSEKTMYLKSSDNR
Experiment: SPR (Biacore), antibody captured on anti-human Fc CM5 chip, hSEMA4D ECD-His 100 nM as analyte, 1:1 fit
Experimental: The anti-human Fc IgG (purchased from Geneway) was coupled and immobilized on the surface of the CM5 chip (purchased from GE) by the amino coupling method, and FC1 was used as the reference channel. The coupling and immobilization process was as follows: the freshly prepared mixture of 50 mM N-hydroxysuccinimide (NHS) and 200 mM 1-(3-dimethylaminopropyl)-3-ethylcarbodiimide hydrochloride (EDC) with a molar ratio of […] was used to activate the chip. Then 10-50 μg/mL anti-human Fc IgG diluted in 10 mM sodium acetate buffer (pH 5.0) was injected. The remaining activated sites were blocked with 1M ethanolamine. Then, buffer containing HBS-EP was used to dilute the 2D5-b1-3D9 antibody prepared to 5 ug/ml and the antibodies were captured on the chip at a flow rate of 10 ul/min to obtain a response value of about 100-300RU. Then, the purified hSEMA4D ECD-His was diluted to 100 nM and let flow across the chip surface at a flow rate of 30 μL/min. At the end of each cycle, the chip surface was regenerated with 10 mM Glycine at pH 1.5. The kinetic rate constant needed to be subtracted from the blank control, and the data was fitted with the global fit analysis method 1:1 combined with the model (see the Biacore operation manual for operation). The dissociation equilibrium rate constant (KD) was calculated according to the following formula: KD=kd/ka, wherein Kd is the dissociation constant and Ka is the binding constant.

B1: 2D5-b1 (antibody, V domains shown)
VH: QVTLRESGPALVKPTQTLTLTCTFSGFSLTTTGVAVTWIRQPPGKALEWLALIDWDDDKYYSTSLKTRLTISKDTSKNQVVLTMTNMDPVDTATYYCARIASGDSGGYFADWGQGTLVTVSS
VL: SYELTQPPSVSVSPGQTASITCSGDKLDDKYVYWYQQKPGQSPVLVIYRDNKRPSGIPERFSGSNSGNTATLTISGTQAMDEADYYCQAWESSSDQYVFGTGTKVTVL
notes: Framework back-mutated variant of 2D5; the parent 2D5 was human IgG4 (S228P)/lambda; captured by anti-human Fc in the SPR assay
  Kd: 2.01 nM
  koff: 0.00103 s⁻¹
  kon: 511000 M⁻¹ s⁻¹

B2: 2D5-b1-3D9 (antibody, human IgG4, V domains shown)
VH: QVTLRESGPALVKPTQTLTLTCTFSGFSLTTTGVAVTWIRQPPGKALEWLALIDWDDDKYYSTSLKTRLTISKDTSKNQVVLTMTNMDPVDTATYYCARIASGDSGGYFADWGQGTLVTVSS
VL: SYELTQPPSVSVSPGQTASITCSGDKLDDKYVYWYQQKPGQSPVLVIYMDNKRKSGIPERFSGSNSGNTATLTISGTQAMDEADYYCQAWESSSDQYVFGTGTKVTVL
notes: also called 2D5-b1-3D9 antibody
  Kd: 0.184 nM
  koff: 0.000107 s⁻¹
  kon: 583000 M⁻¹ s⁻¹
